Measured values published in PMC6406002, “Comparison of the functional properties of trimeric and monomeric CaiT of Escherichia coli” (Scientific Reports, 2019).
Values belong to the substance of their own block, whether it stands above or below them.

How the values were obtained:
CaiT-R299A (E. coli) = CaiT-R299A (E. coli) (UniProt P31553); test: native gel or EMSA; blue native PAGE, 4–16.5% gradient gel, 5 µg purified protein per lane, in detergent solution
CaiT-M295E (E. coli) = CaiT-M295E (E. coli) (UniProt P31553); test: as above
[1] = system: T1, C[N+](C)(C)C[C@H](O)CC(=O)O; test: purified protein; assay type: biochemical, Escherichia coli; settings: labelled compound, proteoliposomes preloaded with 10 mM L-carnitine, potassium phosphate pH 7.5, 25 °C
T1 construct: full-length with C-terminal 6His tag (pET21a), expressed in E. coli JW0039 (delta caiT), Ni-NTA purified; homotrimer (D288A and D288R mostly monomeric); DDM-solubilized or in proteoliposomes

- percent of the protein in the monomeric state (CaiT-R299A (E. coli)): > 80%
Substance: CaiT-R299A (from UniProt P31553 1-504) (natural protein)

- percent of the protein in the monomeric state (CaiT-M295E (E. coli)): > 80%
Substance: CaiT-M295E (from UniProt P31553 1-504) (natural protein)

Substance: CaiT (Escherichia coli K-12; D288A)
- Km ([1]; mostly monomeric variant): 114.1 ± 17.9 µM
- Vmax ([1]; mostly monomeric variant): 1.86 µmol/min/mg

Substance: CaiT (Escherichia coli K-12)
- Km [1]: 45.3 ± 6.9 µM
- Vmax [1]: 2.13 µmol/min/mg
